Test results: patent publication US20210347908A1 (ELPISCIENCE SUZHOU BIOPHARMA, published 2021)

Key:
[1] = target: T1, biotin labeled soluble human SIRPα v1 ECD recombinant protein (human, UniProt P78324 31-373, biotin labeled); test: competitive ELISA, biotin-SIRPα v1 ECD to coated CD47 ECD
T1 construct: extracellular domain
Protocol: Competitive ELISA assay was used to determine whether the purified hybridoma antibodies can block CD47 and SIRPα interaction or CD47 and SIRPγ interaction. Briefly, for CD47 and SIRPα interaction blocking activity detection, antibody and biotin labeled soluble human SIRPα v1 ECD recombinant protein were co-incubated with ELISA microplate coated human CD47 ECD recombinant protein.
For CD47 and SIRPγ interaction blocking activity detection, antibody and biotin labeled soluble human CD47 ECD recombinant protein were co-incubated with ELISA microplate coated human SIRPγ ECD recombinant protein. After washing, horseradish peroxidase labeled streptavidin (HRP-SA, Sigma) was added and incubated at 37° C. for 1 hour. Then, 100 μl/well of TMB solution (Biotechnology) was added. After incubation for 15 minutes at room temperature, the reaction was stopped by the addition of 50 μl of 1N HCl. OD 450 nm was read. Blocking ratio and IC₅₀ was calculated. In comparison with other known anti-SIRPα antibodies, 022, 050, 055, and 074 cannot block CD47 and SIRPα interaction. In particular, all of the antibodies of the invention cannot block CD47 and SIRPγ interaction.

[2] = target: T1, biotin labeled soluble human SIRPα v1 …; test: competitive ELISA; competitor 032
Outline: (§1)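 Epitope binning: OD 450 nm from TMB/HRP-streptavidin detection yielded a competition ratio. Biotin-labelled soluble human SIRPα v1 ECD had been co-incubated with excess competitor antibody over coated antibody; HRP-SA step 1 h at 37 °C, TMB 15 min then HCl stop.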

[3] = target: T1, biotin labeled soluble human SIRPα v1 …; test: competitive ELISA; competitor 074
Outline: as §1

[4] = target: T1, biotin labeled soluble human SIRPα v1 …; test: competitive ELISA; competitor 035
Outline: as §1

[5] = target: T1, biotin labeled soluble human SIRPα v1 …; test: competitive ELISA; competitor 022
Outline: as §1

[6] = target: T2, 6×His tagged human SIRPα v1 ECD recombinant protein (human, UniProt P78324 31-373); test: SPR (Biacore)
T2 construct: extracellular domain; bought; also called hSIRPα V1 (SPR antigen)
Protocol: (§2) Anti-SIRPα chimeric antibodies were characterized for binding affinity against human SIRPα v1, human SIRPα v2 and C57BL/6 mouse SIRPα using Biacore (GE). Briefly the antibodies to be tested were captured to CM5 chip (GE) using Human Antibody Capture Kit (GE). The antigens of 6×His tagged human SIRPα v1, human SIRPα v2 and C57BL/6 mouse SIRPα ECD recombinant proteins were serially diluted for multiple doses and injected at 30 μl/min for 180 s. Buffer flow was maintained for dissociation of 400 s. 3 M MgCl₂ was used for chip regeneration. The association and dissociation curves were fit with 1:1 binding model, and the Ka/Kd/KD values for each antibody were calculated.

[7] = target: 6×His tagged human SIRPα v2 ECD recombinant protein (human); test: SPR (Biacore)
Protocol: as §2

Binder	IC50 [1] [nM]	% Competition [2] [%]	% Competition [3] [%]	% Competition [4] [%]	% Competition [5] [%]	Kd [6] [nM]	Kd [7] [nM]
Antibody 060 (hybridoma antibody) (antibody, V domains shown, mouse hybridoma antibody) VH: QVQLKESGPGLVAPSESLSITCTVSGFSLTNYDISWIRQSPGKGLEWLGVIWTGGDTNFNSAFMSRLSISKDKSKSQVFLKLNSLQTDDTAIYYCVRVQYFGGSYGPMDYWGQGISVTVSS VL: DIQMTQASSYLSVSLGGRVTITCEASDHINDWLAWYQQTPGNAPRLLISGATSLETGVPSRFSGSGSGKDYTLSITSLQTEDIATYYCQQYWNTPLTFGAGTRLELK	> 1000	4	-1	3	10		
reference antibody KWAR23 (antibody, V domains shown) VH: EVQLQQSGAELVKPGASVKLSCTASGFNIKDYYIHWVQQRTEQGLEWIGRIDPEDGETKYAPKFQDKATITADTSSNTAYLHLSSLTSEDTAVYYCARWGAYWGQGTLVTVSS VL: QIVLTQSPAIMSASPGEKVTLTCSASSSVSSSYLYWYQQKPGSSPKLWIYSTSNLASGVPARFSGSGSGTSYSLTISSMEAEDAASYFCHQWSSYPRTFGAGTKLELK	0.6	82	1	4	6	2.66	14.7
